Measured values as given in patent US20230331799A1 (XILIO DEVELOPMENT, published 2023).

How the values were obtained:
AK564 [1] = molecular target: T1, AK564 (human, UniProt Q13261 31-96); test: SPR (Biacore 8K), multi-cycle kinetics, human CD122 immobilised by amine coupling, construct as analyte, 25 C
T1 construct: also called IL-15 masked non-cleavable AK564

AK564 [2] = molecular target: T1, AK564; test: SPR (Biacore 8K), multi-cycle kinetics, human CD215 immobilised by amine coupling, construct as analyte, 25 C

B1: Recombinant Human IL-2 R beta Protein (CD122) (receptor, UniProt P14784 27-239, looked up)
chain: AVNGTSQFTCFYNSRANISCVWSQDGALQDTSCQVHAWPDRRRWNQTCELLPVSQASWACNLILGAPDSQKLTTVDIVTLRVLCREGVRWRVMAIQDFKPFENLRLMAPISLQVVHVETHRCNISWEISQASHYFERHLEFEARTLSPGHTWEEAPLLTLKQKQEWICLETLTPDTQYEFQVRVKPLQGEFTTWSPWSQPLAFRTKPAALGKD
notes: also called human CD122
B1: no binding (tested: Top 500 nM, 2x dilution) (AK564 [1]).

B2: Recombinant Human IL-15R alpha Fc chimera Protein (CD215) (Fc fusion, UniProt Q13261 31-205, looked up)
chain: ITCPPPMSVEHADIWVKSYSLYSRERYICNSGFKRKAGTSSLTECVLNKATNVAHWTTPSLKCIRDPALVHQRPAPPSTVTTAGVTPQPESLSPSGKEPAASSPSSNNTAATTAAIVPGSQLMPSKSPSTGTTEISSHESSHGTPSQTTAKNWELTASASHQPPGVYPQGHSDTT
notes: also called human CD215; Fc part of the bought chimera not given
B2: no binding (tested: Top 40 nM, 2x dilution) (AK564 [2]).
